For the test, the target named is human OT7T175 (metastin receptor) (human) (UniProt Q969F8). The test can be described thus: cell-based or functional assay.

Here are results for 21 molecules from US20090105152A1.

Numbered stars: 1 amine (or outer) side, 2 acyl side, 3 side chain; on linkers, the order of the positions; unused ones are H or OH. Square brackets hold non-standard residues; d marks the D form. Primed or numbered codes have the meaning given here. Azetidine3carboxylic = O=C(C1CN([*:1])C1)[*:2]; Phe(βS-OH) = N[C@H](C(=O)O)[C@@H](O)c1ccccc1; Pro(trans-4-F) = O=C(O)[C@@H]1C[C@@H](F)CN1; Pic(3) = 3-piperidinecarboxylic acid; Arg(Me) = CNC(=N)NCCC[C@H](N)C(=O)O; Dap(CONH2) = NC(=O)NC[C@H](N)C(=O)O; cisHyp = O=C(O)[C@@H]1C[C@H](O)CN1; Hyp = O=C(O)[C@@H]1C[C@@H](O)CN1; d4Pal = N[C@H](Cc1ccncc1)C(=O)O; Pip = O=C(O)[C@@H]1CCCCN1; NMeA = CN[C@@H](C)C(=O)O; Thz = O=C(O)[C@@H]1CSCN1; Aze = O=C(O)[C@@H]1CCN1; Nva = CCC[C@H](N)C(=O)O; 2Abz = Nc1ccccc1C(=O)O; Aib = CC(C)(N)C(=O)O; azaGly = NNC(=O)O; Sar = CNCC(=O)O

Chain of human OT7T175 (metastin receptor) (human) (Q969F8 whole entry L364H): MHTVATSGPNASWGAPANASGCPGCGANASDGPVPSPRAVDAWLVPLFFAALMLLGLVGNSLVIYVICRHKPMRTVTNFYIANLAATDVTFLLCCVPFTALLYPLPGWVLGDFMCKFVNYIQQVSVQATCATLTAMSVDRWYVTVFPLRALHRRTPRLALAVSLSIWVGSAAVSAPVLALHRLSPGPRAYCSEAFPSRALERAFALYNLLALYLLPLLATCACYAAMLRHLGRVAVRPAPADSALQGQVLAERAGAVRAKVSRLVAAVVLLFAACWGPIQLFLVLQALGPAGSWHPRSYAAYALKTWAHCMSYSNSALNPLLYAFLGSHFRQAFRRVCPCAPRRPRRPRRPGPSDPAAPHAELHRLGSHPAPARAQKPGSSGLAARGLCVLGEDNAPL

B1: des(1)-Ac-[D-Tyr2,D-Trp3,D-Pro5,AzaGly7,Arg(Me)9,Trp10]MS10 (peptide)
peptide: Ac-[dY][dW]N[dP]F[azaGly]L[Arg(Me)]W-NH2
SMILES: CNC(=N)NCCC[C@H](NC(=O)[C@H](CC(C)C)NC(=O)NNC(=O)[C@H](Cc1ccccc1)NC(=O)[C@H]1CCCN1C(=O)[C@H](CC(N)=O)NC(=O)[C@@H](Cc1c[nH]c2ccccc12)NC(=O)[C@@H](Cc1ccc(O)cc1)NC(C)=O)C(=O)N[C@@H](Cc1c[nH]c2ccccc12)C(N)=O
As for B1, the intracellular Ca ion level-increasing activity [specific activity to Metastin (1-54)] (relative to Metastin (1-54)) stood at 3.8.

B2: des(1)-Ac-[D-Tyr2,Gly3,Thr5,AzaGly7,Arg(Me)9,Trp10]MS10 (peptide)
peptide: Ac-[dY]GNTF[azaGly]L[Arg(Me)]W-NH2
SMILES: CNC(=N)NCCC[C@H](NC(=O)[C@H](CC(C)C)NC(=O)NNC(=O)[C@H](Cc1ccccc1)NC(=O)[C@@H](NC(=O)[C@H](CC(N)=O)NC(=O)CNC(=O)[C@@H](Cc1ccc(O)cc1)NC(C)=O)[C@@H](C)O)C(=O)N[C@@H](Cc1c[nH]c2ccccc12)C(N)=O
Regarding B2, the intracellular Ca ion level-increasing activity [specific activity to Metastin (1-54)] (relative to Metastin (1-54)) came to 3.1.

B3: des(1)-Ac-[D-Tyr2,NMeAla3,Thr5,AzaGly7,Arg(Me)9,Trp10]MS10 (peptide)
peptide: Ac-[dY][NMeA]NTF[azaGly]L[Arg(Me)]W-NH2
SMILES: CNC(=N)NCCC[C@H](NC(=O)[C@H](CC(C)C)NC(=O)NNC(=O)[C@H](Cc1ccccc1)NC(=O)[C@@H](NC(=O)[C@H](CC(N)=O)NC(=O)[C@H](C)N(C)C(=O)[C@@H](Cc1ccc(O)cc1)NC(C)=O)[C@@H](C)O)C(=O)N[C@@H](Cc1c[nH]c2ccccc12)C(N)=O
For B3, the intracellular Ca ion level-increasing activity [specific activity to Metastin (1-54)] (relative to Metastin (1-54)) was 2.7.

B4: des(1)-Ac-[D-Tyr2,Abz(2)3,Thr5,AzaGly7,Arg(Me)9,Trp10]MS10 (peptide)
peptide: Ac-[dY][2Abz]NTF[azaGly]L[Arg(Me)]W-NH2
SMILES: CNC(=N)NCCC[C@H](NC(=O)[C@H](CC(C)C)NC(=O)NNC(=O)[C@H](Cc1ccccc1)NC(=O)[C@@H](NC(=O)[C@H](CC(N)=O)NC(=O)c1ccccc1NC(=O)[C@@H](Cc1ccc(O)cc1)NC(C)=O)[C@@H](C)O)C(=O)N[C@@H](Cc1c[nH]c2ccccc12)C(N)=O
With B4, the intracellular Ca ion level-increasing activity [specific activity to Metastin (1-54)] (relative to Metastin (1-54)) worked out at 3.2.

B5: des(1)-Ac-[D-Tyr2,Hyp3,Thr5,erythro-Ser(3Phenyl)6,AzaGly7,Arg(Me)9,Trp10]MS10 (peptide)
peptide: Ac-[dY][Hyp]NT[Phe(βS-OH)][azaGly]L[Arg(Me)]W-NH2
SMILES: CNC(=N)NCCC[C@H](NC(=O)[C@H](CC(C)C)NC(=O)NNC(=O)[C@@H](NC(=O)[C@@H](NC(=O)[C@H](CC(N)=O)NC(=O)[C@@H]1C[C@@H](O)CN1C(=O)[C@@H](Cc1ccc(O)cc1)NC(C)=O)[C@@H](C)O)[C@@H](O)c1ccccc1)C(=O)N[C@@H](Cc1c[nH]c2ccccc12)C(N)=O
Turning to B5, the intracellular Ca ion level-increasing activity [specific activity to Metastin (1-54)] (relative to Metastin (1-54)) was found to be 0.8.

B6: des(1)-Ac-[D-Tyr2,Hyp3,Nva4,Thr5,AzaGly7,Arg(Me)9,Trp10]MS10 (peptide)
peptide: Ac-[dY][Hyp][Nva]TF[azaGly]L[Arg(Me)]W-NH2
SMILES: CCC[C@H](NC(=O)[C@@H]1C[C@@H](O)CN1C(=O)[C@@H](Cc1ccc(O)cc1)NC(C)=O)C(=O)N[C@H](C(=O)N[C@@H](Cc1ccccc1)C(=O)NNC(=O)N[C@@H](CC(C)C)C(=O)N[C@@H](CCCNC(=N)NC)C(=O)N[C@@H](Cc1c[nH]c2ccccc12)C(N)=O)[C@@H](C)O
The molecule B6 yielded an intracellular Ca ion level-increasing activity [specific activity to Metastin (1-54)] (relative to Metastin (1-54)) of 1.2.

B7: des(1)-Ac-[D-Tyr2,D-Trp3,Alb4,Thr5,AzaGly7,Arg(Me)9,Trp10]MS10 (peptide)
peptide: Ac-[dY][dW][Dap(CONH2)]TF[azaGly]L[Arg(Me)]W-NH2
SMILES: CNC(=N)NCCC[C@H](NC(=O)[C@H](CC(C)C)NC(=O)NNC(=O)[C@H](Cc1ccccc1)NC(=O)[C@@H](NC(=O)[C@H](CNC(N)=O)NC(=O)[C@@H](Cc1c[nH]c2ccccc12)NC(=O)[C@@H](Cc1ccc(O)cc1)NC(C)=O)[C@@H](C)O)C(=O)N[C@@H](Cc1c[nH]c2ccccc12)C(N)=O
On to B7, for which the intracellular Ca ion level-increasing activity [specific activity to Metastin (1-54)] (relative to Metastin (1-54)) was determined as 1.
Next, Ac-[dY][cisHyp]NTF[azaGly]L[Arg(Me)]W-NH2 [des(1)-Ac-[D-Tyr2,cisHyp3,Thr5,AzaGly7,Arg(Me)9,Trp10]MS10]: 0.6.
Next, Ac-[dY][Hyp]NTF[azaGly]L[Arg(Me)]W-NH2 [des(1)-Ac-[D-Tyr2,Hyp3,Thr5,AzaGly7,Arg(Me)9,Trp10]MS10]: 2.

B8: des(1)-Ac-[D-Tyr2,Aib3,Thr5,AzaGly7,Arg(Me)9,Trp10]MS10 (peptide)
peptide: Ac-[dY][Aib]NTF[azaGly]L[Arg(Me)]W-NH2
SMILES: CNC(=N)NCCC[C@H](NC(=O)[C@H](CC(C)C)NC(=O)NNC(=O)[C@H](Cc1ccccc1)NC(=O)[C@@H](NC(=O)[C@H](CC(N)=O)NC(=O)C(C)(C)NC(=O)[C@@H](Cc1ccc(O)cc1)NC(C)=O)[C@@H](C)O)C(=O)N[C@@H](Cc1c[nH]c2ccccc12)C(N)=O
B8: the intracellular Ca ion level-increasing activity [specific activity to Metastin (1-54)] (relative to Metastin (1-54)) is 1.5.
Consider {3‑(p-hydroxyphenyl)propionyl}-[Hyp]NTF[azaGly]L[Arg(Me)]W-NH2 [des(1-2)-3-(p-Hydroxyphenyl)propionyl-[Hyp3,Thr5,AzaGly7,Arg(Me)9,Trp10]MS10], for which the intracellular Ca ion level-increasing activity [specific activity to Metastin (1-54)] (relative to Metastin (1-54)) turned out to be 1.1.

B9: des(1)-Ac-[D-Tyr2,Pic(2)3,Thr5,AzaGly7,Arg(Me)9,Trp10]MS10 (peptide)
peptide: Ac-[dY][Pip]NTF[azaGly]L[Arg(Me)]W-NH2
SMILES: CNC(=N)NCCC[C@H](NC(=O)[C@H](CC(C)C)NC(=O)NNC(=O)[C@H](Cc1ccccc1)NC(=O)[C@@H](NC(=O)[C@H](CC(N)=O)NC(=O)[C@@H]1CCCCN1C(=O)[C@@H](Cc1ccc(O)cc1)NC(C)=O)[C@@H](C)O)C(=O)N[C@@H](Cc1c[nH]c2ccccc12)C(N)=O
Molecule B9 registered an intracellular Ca ion level-increasing activity [specific activity to Metastin (1-54)] (relative to Metastin (1-54)) of 1.1.

B10: des(1)-Ac-[D-Tyr2,Aze(2)3,Thr5,AzaGly7,Arg(Me)9,Trp10]MS10 (peptide)
peptide: Ac-[dY][Aze]NTF[azaGly]L[Arg(Me)]W-NH2
SMILES: CNC(=N)NCCC[C@H](NC(=O)[C@H](CC(C)C)NC(=O)NNC(=O)[C@H](Cc1ccccc1)NC(=O)[C@@H](NC(=O)[C@H](CC(N)=O)NC(=O)[C@@H]1CCN1C(=O)[C@@H](Cc1ccc(O)cc1)NC(C)=O)[C@@H](C)O)C(=O)N[C@@H](Cc1c[nH]c2ccccc12)C(N)=O
For the molecule B10, the intracellular Ca ion level-increasing activity [specific activity to Metastin (1-54)] (relative to Metastin (1-54)) is 0.8.

B11: des(1)-Ac-[D-Tyr2,Thz3,Thr5,AzaGly7,Arg(Me)9,Trp10]MS10 (peptide)
peptide: Ac-[dY][Thz]NTF[azaGly]L[Arg(Me)]W-NH2
SMILES: CNC(=N)NCCC[C@H](NC(=O)[C@H](CC(C)C)NC(=O)NNC(=O)[C@H](Cc1ccccc1)NC(=O)[C@@H](NC(=O)[C@H](CC(N)=O)NC(=O)[C@@H]1CSCN1C(=O)[C@@H](Cc1ccc(O)cc1)NC(C)=O)[C@@H](C)O)C(=O)N[C@@H](Cc1c[nH]c2ccccc12)C(N)=O
With B11, the intracellular Ca ion level-increasing activity [specific activity to Metastin (1-54)] (relative to Metastin (1-54)) worked out at 1.4.

B12: des(1)-Ac-[D-Tyr2,Sar3,Thr5,AzaGly7,Arg(Me)9,Trp10]MS10 (peptide)
peptide: Ac-[dY][Sar]NTF[azaGly]L[Arg(Me)]W-NH2
SMILES: CNC(=N)NCCC[C@H](NC(=O)[C@H](CC(C)C)NC(=O)NNC(=O)[C@H](Cc1ccccc1)NC(=O)[C@@H](NC(=O)[C@H](CC(N)=O)NC(=O)CN(C)C(=O)[C@@H](Cc1ccc(O)cc1)NC(C)=O)[C@@H](C)O)C(=O)N[C@@H](Cc1c[nH]c2ccccc12)C(N)=O
B12 registered an intracellular Ca ion level-increasing activity [specific activity to Metastin (1-54)] (relative to Metastin (1-54)) of 8.8.

B13: des(1)-Ac-[D-Tyr2,D-Trp3,Thr5,AzaGly7,D-Arg9,Trp10]MS10 (peptide)
peptide: Ac-[dY][dW]NTF[azaGly]L[dR]W-NH2
SMILES: CC(=O)N[C@H](Cc1ccc(O)cc1)C(=O)N[C@H](Cc1c[nH]c2ccccc12)C(=O)N[C@@H](CC(N)=O)C(=O)N[C@H](C(=O)N[C@@H](Cc1ccccc1)C(=O)NNC(=O)N[C@@H](CC(C)C)C(=O)N[C@H](CCCNC(=N)N)C(=O)N[C@@H](Cc1c[nH]c2ccccc12)C(N)=O)[C@@H](C)O
Molecule B13 yielded an intracellular Ca ion level-increasing activity [specific activity to Metastin (1-54)] (relative to Metastin (1-54)) of 12.8.

B14: des(1)-Ac-[D-Tyr2,Pro(4F)3,Thr5,AzaGly7,Arg(Me)9,Trp10]MS10 (peptide)
peptide: Ac-[dY][Pro(trans-4-F)]NTF[azaGly]L[Arg(Me)]W-NH2
SMILES: CNC(=N)NCCC[C@H](NC(=O)[C@H](CC(C)C)NC(=O)NNC(=O)[C@H](Cc1ccccc1)NC(=O)[C@@H](NC(=O)[C@H](CC(N)=O)NC(=O)[C@@H]1C[C@@H](F)CN1C(=O)[C@@H](Cc1ccc(O)cc1)NC(C)=O)[C@@H](C)O)C(=O)N[C@@H](Cc1c[nH]c2ccccc12)C(N)=O
Consider B14, for which the intracellular Ca ion level-increasing activity [specific activity to Metastin (1-54)] (relative to Metastin (1-54)) was 0.7.
Next, Ac-Y[Hyp]NTF[azaGly]L[Arg(Me)]W-NH2 [des(1)-Ac-[Tyr2,Hyp3,Thr5,AzaGly7,Arg(Me)9,Trp10]MS10]: 1.1; Ac-[dY][Pic(3)]NTF[azaGly]L[Arg(Me)]W-NH2 [des(1)-Ac-[D-Tyr2,Pic(3)3,Thr5,AzaGly7,Arg(Me)9,Trp10]MS10]: 2.2.

B15: des(1)-Ac-[D-Tyr2,Aze(3)3,Thr5,AzaGly7,Arg(Me)9,Trp10]MS10 (peptide)
peptide: Ac-[dY][Azetidine3carboxylic]NTF[azaGly]L[Arg(Me)]W-NH2
SMILES: CNC(=N)NCCC[C@H](NC(=O)[C@H](CC(C)C)NC(=O)NNC(=O)[C@H](Cc1ccccc1)NC(=O)[C@@H](NC(=O)[C@H](CC(N)=O)NC(=O)C1CN(C(=O)[C@@H](Cc2ccc(O)cc2)NC(C)=O)C1)[C@@H](C)O)C(=O)N[C@@H](Cc1c[nH]c2ccccc12)C(N)=O
Consider B15, for which the intracellular Ca ion level-increasing activity [specific activity to Metastin (1-54)] (relative to Metastin (1-54)) is 4.1.

B16: des(1)-Ac-[D-Tyr2,D-Pya(4)3,Alb4,Thr5,AzaGly7,Arg(Me)9,Trp10]MS10 (peptide)
peptide: Ac-[dY][d4Pal][Dap(CONH2)]TF[azaGly]L[Arg(Me)]W-NH2
SMILES: CNC(=N)NCCC[C@H](NC(=O)[C@H](CC(C)C)NC(=O)NNC(=O)[C@H](Cc1ccccc1)NC(=O)[C@@H](NC(=O)[C@H](CNC(N)=O)NC(=O)[C@@H](Cc1ccncc1)NC(=O)[C@@H](Cc1ccc(O)cc1)NC(C)=O)[C@@H](C)O)C(=O)N[C@@H](Cc1c[nH]c2ccccc12)C(N)=O
B16 yielded an intracellular Ca ion level-increasing activity [specific activity to Metastin (1-54)] (relative to Metastin (1-54)) of 2.6.
